Data: US20230374116A1 (ROSALIND FRANKLIN INSTITUTE, published 2023)
Read-outs that look alike come from different tables or passages of the source.

B1: C1 (VHH)
VHH: QVQLVESGGGLVQPGGSLRLSCAASGFTNDFYSIAWFRQAPGKEREGVSWLSVSDNTPTYVDSVKDRFTISRHNANNTVYLQMNMLKPEDTAIYYCAAGRFAGRDTWPSSYDYWGQGTQVTVSS
B2: F2 (VHH)
VHH: QVQLVESGGGLVQAGGSLRLACIASGRTFHSYVMAWFRQAPGKEREFVAAISWSSTPTYYGESVKGRFTISRDNAKNTVYLQMNRLKPEDTAVYFCAADRGESYYYTRPTEYEFWGQGTQVTVSS
notes: also called VHH F2
B3: H3 trimer (VHH)
chain: QVQLVESGGGLVKTGGSLRLSCAASGRTFSTYSMGWFRQAPGKEREFVAGMRWTGSSTFYSDSVKGRFTVSRNNAKDTVYLHMNSLKPEDTAVYYCAITTIVRAYYTEYTEADFGSWGQGTQVTVSSGAVLAPQVQLVESGGGLVKTGGSLRLSCAASGRTFSTYSMGWFRQAPGKEREFVAGMRWTGSSTFYSDSVKGRFTVSRNNAKDTVYLHMNSLKPEDTAVYYCAITTIVRAYYTEYTEADFGSWGQGTQVTVSSGSGSGSQVQLVESGGGLVKTGGSLRLSCAASGRTFSTYSMGWFRQAPGKEREFVAGMRWTGSSTFYSDSVKGRFTVSRNNAKDTVYLHMNSLKPEDTAVYYCAITTIVRAYYTEYTEADFGSWGQGTQVTVSS
B4: H3 (VHH)
VHH: QVQLVESGGGLVKTGGSLRLSCAASGRTFSTYSMGWFRQAPGKEREFVAGMRWTGSSTFYSDSVKGRFTVSRNNAKDTVYLHMNSLKPEDTAVYYCAITTIVRAYYTEYTEADFGSWGQGTQVTVSS
B5: C5 trimer (VHH)
chain: QVQLVESGGGSVQAGGSLTLSCVASGVTLGRHAIGWFRQAPGKERERVSCIRTFDGITSYVESTKGRFTISSNNAMNTVYLQMNSLKPEDTAVYFCALGVTAACSDNPYFWGQGTQVTVSSGSGSGSQVQLVESGGGSVQAGGSLTLSCVASGVTLGRHAIGWFRQAPGKERERVSCIRTFDGITSYVESTKGRFTISSNNAMNTVYLQMNSLKPEDTAVYFCALGVTAACSDNPYFWGQGTQVTVSSGSGSGSQVQLVESGGGSVQAGGSLTLSCVASGVTLGRHAIGWFRQAPGKERERVSCIRTFDGITSYVESTKGRFTISSNNAMNTVYLQMNSLKPEDTAVYFCALGVTAACSDNPYFWGQGTQVTVSS
notes: also called trimeric C5 nanobody; C5-6GS-C5-6GS-C5
B6: C5 (VHH)
VHH: QVQLVESGGGSVQAGGSLTLSCVASGVTLGRHAIGWFRQAPGKERERVSCIRTFDGITSYVESTKGRFTISSNNAMNTVYLQMNSLKPEDTAVYFCALGVTAACSDNPYFWGQGTQVTVSS
notes: also called VHH C5
B7: C1 trimer (VHH)
chain: QVQLVESGGGLVQPGGSLRLSCAASGFTNDFYSIAWFRQAPGKEREGVSWLSVSDNTPTYVDSVKDRFTISRHNANNTVYLQMNMLKPEDTAIYYCAAGRFAGRDTWPSSYDYWGQGTQVTVSSGSGSGSQVQLVESGGGLVQPGGSLRLSCAASGFTNDFYSIAWFRQAPGKEREGVSWLSVSDNTPTYVDSVKDRFTISRHNANNTVYLQMNMLKPEDTAIYYCAAGRFAGRDTWPSSYDYWGQGTQVTVSSGSGSGSQVQLVESGGGLVQPGGSLRLSCAASGFTNDFYSIAWFRQAPGKEREGVSWLSVSDNTPTYVDSVKDRFTISRHNANNTVYLQMNMLKPEDTAIYYCAAGRFAGRDTWPSSYDYWGQGTQVTVSS

Legend:
[1] = biological target: Alpha RBD
[2] = biological target: Alpha RBD; remark: listed apart in the source

Row | Binder | Kd [1] [nM] | T1/2 [1] [min] | Kd [2] [nM] | T1/2 [2] [min] | koff [2] [s⁻¹] | kon [2] [M⁻¹ s⁻¹]
1 | B1 | 0.725 | 21 |  |  |  | 
2 | B2 | 0.047 | 51 |  |  |  | 
3 | B3 |  |  | 0.006 | 98 | 0.00012 | 1.8e+07
4 | B4 | 0.102 | 10 |  |  |  | 
5 | B5 |  |  | 0.029 | 41 |  | 
6 | B6 | 2.52 | 1 |  |  |  | 
7 | B7 |  |  | 0.073 | 154 | 7.4e-05 | 1e+06
